Laboratory results as given in paper PMC9482650, “Quantitative fragmentomics allow affinity mapping of interactomes” (Nature Communications, 2022).

molecular target: ARHGEF12, Q9NZN5-2; experiment: holdup assay; set-up: key: below the threshold = too weak to quantify, mostly under pKd 3.1 to 4; conditions: plain residues with an end cap or a label only (N-terminal biotin on a linker: ado-ado)
Sequence (Q9NZN5 other isoform, or with tags, fused parts or gaps): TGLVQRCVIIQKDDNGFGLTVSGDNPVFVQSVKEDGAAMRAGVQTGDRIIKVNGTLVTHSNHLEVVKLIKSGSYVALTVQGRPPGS

Binder | pKd
DRIQSCLSDA [SBF1, O95248] | below the threshold
PSVGSKKTVL [REELD1, A0A1B0GV85] | 5.05

molecular target: T1, ARHGAP21, Q5T5U3; experiment: holdup assay; set-up: key: below the threshold = too weak to quantify, mostly under pKd 3.1 to 4; conditions: plain residues with an end cap or a label only (N-terminal biotin on a linker: ado-ado)
T1 sequence (Q5T5U3 45-169, limits assumed, looked up): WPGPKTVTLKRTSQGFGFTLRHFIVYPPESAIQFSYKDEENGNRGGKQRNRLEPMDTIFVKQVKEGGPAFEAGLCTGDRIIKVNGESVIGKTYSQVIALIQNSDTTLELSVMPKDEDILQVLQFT

Binder | pKd
DRIQSCLSDA [SBF1, O95248] | below the threshold
PSVGSKKTVL [REELD1, A0A1B0GV85] | 3.93

molecular target: T2, FRMPD1, Q5SYB0; experiment: holdup assay; set-up: key: below the threshold = too weak to quantify, mostly under pKd 3.1 to 4; conditions: plain residues with an end cap or a label only (N-terminal biotin on a linker: ado-ado)
T2 sequence (Q5SYB0 52-145, limits assumed, looked up): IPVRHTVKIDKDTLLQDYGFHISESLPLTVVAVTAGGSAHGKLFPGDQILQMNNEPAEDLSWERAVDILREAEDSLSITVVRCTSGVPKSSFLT

Binder | pKd
DRIQSCLSDA [SBF1, O95248] | below the threshold
PSVGSKKTVL [REELD1, A0A1B0GV85] | below the threshold

molecular target: MAGI2_5, Q86UL8; experiment: holdup assay; set-up: key: below the threshold = too weak to quantify, mostly under pKd 3.1 to 4; conditions: plain residues with an end cap or a label only (N-terminal biotin on a linker: ado-ado)
Sequence (Q86UL8 915-1017): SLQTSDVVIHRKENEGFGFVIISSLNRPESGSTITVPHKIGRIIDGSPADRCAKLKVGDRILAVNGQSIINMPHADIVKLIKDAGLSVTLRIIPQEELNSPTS

Binder | pKd
DRIQSCLSDA [SBF1, O95248] | 3.6
PSVGSKKTVL [REELD1, A0A1B0GV85] | below the threshold

molecular target: LIMK2, P53671; experiment: holdup assay; set-up: key: below the threshold = too weak to quantify, mostly under pKd 3.1 to 4; conditions: plain residues with an end cap or a label only (N-terminal biotin on a linker: ado-ado)
Sequence (P53671 143-248): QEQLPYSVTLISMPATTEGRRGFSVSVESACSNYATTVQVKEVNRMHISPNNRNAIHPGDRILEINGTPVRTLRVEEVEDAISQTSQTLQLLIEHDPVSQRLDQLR

Binder | pKd
DRIQSCLSDA [SBF1, O95248] | below the threshold
PSVGSKKTVL [REELD1, A0A1B0GV85] | below the threshold

molecular target: SNX27, Q96L92; experiment: holdup assay; set-up: key: below the threshold = too weak to quantify, mostly under pKd 3.1 to 4; conditions: plain residues with an end cap or a label only (N-terminal biotin on a linker: ado-ado)

Binder | pKd
DRIQSCLSDA [SBF1, O95248] | below the threshold
PSVGSKKTVL [REELD1, A0A1B0GV85] | 3.71

molecular target: LDB3, O75112; experiment: holdup assay; set-up: key: below the threshold = too weak to quantify, mostly under pKd 3.1 to 4; conditions: plain residues with an end cap or a label only (N-terminal biotin on a linker: ado-ado)
Sequence (O75112 1-94): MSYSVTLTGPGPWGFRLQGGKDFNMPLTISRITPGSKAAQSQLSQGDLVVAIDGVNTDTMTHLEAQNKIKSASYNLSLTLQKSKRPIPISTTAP

Binder | pKd
DRIQSCLSDA [SBF1, O95248] | below the threshold
PSVGSKKTVL [REELD1, A0A1B0GV85] | below the threshold

molecular target: MAGI2_6, Q86UL8; experiment: holdup assay; set-up: key: below the threshold = too weak to quantify, mostly under pKd 3.1 to 4; conditions: plain residues with an end cap or a label only (N-terminal biotin on a linker: ado-ado)
Sequence (Q86UL8 1141-1229): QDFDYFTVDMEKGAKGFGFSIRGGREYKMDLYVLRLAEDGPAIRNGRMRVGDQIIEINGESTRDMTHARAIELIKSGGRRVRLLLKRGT

Binder | pKd
DRIQSCLSDA [SBF1, O95248] | below the threshold
PSVGSKKTVL [REELD1, A0A1B0GV85] | below the threshold

molecular target: DLG4_1, P78352; experiment: holdup assay; set-up: key: below the threshold = too weak to quantify, mostly under pKd 3.1 to 4; conditions: plain residues with an end cap or a label only (N-terminal biotin on a linker: ado-ado)
Sequence (P78352 62-152): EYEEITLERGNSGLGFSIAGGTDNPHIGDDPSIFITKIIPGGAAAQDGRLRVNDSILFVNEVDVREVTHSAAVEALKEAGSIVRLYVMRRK

Binder | pKd
DRIQSCLSDA [SBF1, O95248] | below the threshold
PSVGSKKTVL [REELD1, A0A1B0GV85] | below the threshold

molecular target: T3, PDZRN3_1, Q9UPQ7; experiment: holdup assay; set-up: key: below the threshold = too weak to quantify, mostly under pKd 3.1 to 4; conditions: plain residues with an end cap or a label only (N-terminal biotin on a linker: ado-ado)
T3 sequence (Q9UPQ7 244-349, limits assumed, looked up): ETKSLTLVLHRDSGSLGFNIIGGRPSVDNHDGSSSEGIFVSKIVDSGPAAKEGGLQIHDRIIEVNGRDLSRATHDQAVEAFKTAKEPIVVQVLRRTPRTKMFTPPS

Binder | pKd
DRIQSCLSDA [SBF1, O95248] | below the threshold
PSVGSKKTVL [REELD1, A0A1B0GV85] | 3.48

molecular target: SCRIB_1, Q14160; experiment: holdup assay; set-up: key: below the threshold = too weak to quantify, mostly under pKd 3.1 to 4; conditions: plain residues with an end cap or a label only (N-terminal biotin on a linker: ado-ado)
Sequence (Q14160 718-814): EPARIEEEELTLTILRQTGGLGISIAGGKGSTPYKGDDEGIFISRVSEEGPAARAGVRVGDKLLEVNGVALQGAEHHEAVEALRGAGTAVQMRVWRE

Binder | pKd
DRIQSCLSDA [SBF1, O95248] | below the threshold
PSVGSKKTVL [REELD1, A0A1B0GV85] | below the threshold

molecular target: T4, RADIL, Q96JH8; experiment: holdup assay; set-up: key: below the threshold = too weak to quantify, mostly under pKd 3.1 to 4; conditions: plain residues with an end cap or a label only (N-terminal biotin on a linker: ado-ado)
T4 sequence (Q96JH8 971-1071, limits assumed, looked up): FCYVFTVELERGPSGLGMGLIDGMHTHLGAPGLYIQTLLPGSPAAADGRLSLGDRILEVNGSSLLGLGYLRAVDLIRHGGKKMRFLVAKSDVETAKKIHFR

Binder | pKd
DRIQSCLSDA [SBF1, O95248] | below the threshold
PSVGSKKTVL [REELD1, A0A1B0GV85] | below the threshold

molecular target: PTPN3, P26045; experiment: holdup assay; set-up: key: below the threshold = too weak to quantify, mostly under pKd 3.1 to 4; conditions: plain residues with an end cap or a label only (N-terminal biotin on a linker: ado-ado)
Sequence (P26045 505-587): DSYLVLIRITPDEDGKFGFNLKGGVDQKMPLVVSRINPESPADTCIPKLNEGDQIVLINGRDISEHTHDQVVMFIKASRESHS

Binder | pKd
DRIQSCLSDA [SBF1, O95248] | 4.23
PSVGSKKTVL [REELD1, A0A1B0GV85] | 3.64

molecular target: GIPC2, Q8TF65; experiment: holdup assay; set-up: key: below the threshold = too weak to quantify, mostly under pKd 3.1 to 4; conditions: plain residues with an end cap or a label only (N-terminal biotin on a linker: ado-ado)
Sequence (Q8TF65 112-203): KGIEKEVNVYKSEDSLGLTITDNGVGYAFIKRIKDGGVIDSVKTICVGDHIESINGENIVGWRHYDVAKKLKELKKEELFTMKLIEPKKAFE

Binder | pKd
DRIQSCLSDA [SBF1, O95248] | below the threshold
PSVGSKKTVL [REELD1, A0A1B0GV85] | below the threshold

molecular target: T5, MPP2, Q14168; experiment: holdup assay; set-up: key: below the threshold = too weak to quantify, mostly under pKd 3.1 to 4; conditions: plain residues with an end cap or a label only (N-terminal biotin on a linker: ado-ado)
T5 sequence (Q14168 180-250, limits assumed, looked up): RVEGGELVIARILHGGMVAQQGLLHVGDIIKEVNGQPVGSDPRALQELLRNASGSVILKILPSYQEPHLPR

Binder | pKd
DRIQSCLSDA [SBF1, O95248] | below the threshold
PSVGSKKTVL [REELD1, A0A1B0GV85] | below the threshold

molecular target: MAGI1_1, Q96QZ7; experiment: holdup assay; set-up: key: below the threshold = too weak to quantify, mostly under pKd 3.1 to 4; conditions: plain residues with an end cap or a label only (N-terminal biotin on a linker: ado-ado)
Sequence (Q96QZ7 1-106): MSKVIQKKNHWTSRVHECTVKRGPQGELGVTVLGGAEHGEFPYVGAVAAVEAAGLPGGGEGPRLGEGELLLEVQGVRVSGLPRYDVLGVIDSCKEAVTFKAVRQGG

Binder | pKd
DRIQSCLSDA [SBF1, O95248] | below the threshold
PSVGSKKTVL [REELD1, A0A1B0GV85] | below the threshold

molecular target: MAST2, Q6P0Q8; experiment: holdup assay; set-up: key: below the threshold = too weak to quantify, mostly under pKd 3.1 to 4; conditions: plain residues with an end cap or a label only (N-terminal biotin on a linker: ado-ado)
Sequence (Q6P0Q8 1099-1202): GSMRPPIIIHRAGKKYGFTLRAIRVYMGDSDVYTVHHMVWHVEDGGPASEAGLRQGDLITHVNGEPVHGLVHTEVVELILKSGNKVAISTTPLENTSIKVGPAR

Binder | pKd
DRIQSCLSDA [SBF1, O95248] | 4.35
PSVGSKKTVL [REELD1, A0A1B0GV85] | 5.05

molecular target: Inadl_3, Q8NI35; experiment: holdup assay; set-up: key: below the threshold = too weak to quantify, mostly under pKd 3.1 to 4; conditions: plain residues with an end cap or a label only (N-terminal biotin on a linker: ado-ado)
Sequence (Q8NI35 359-469): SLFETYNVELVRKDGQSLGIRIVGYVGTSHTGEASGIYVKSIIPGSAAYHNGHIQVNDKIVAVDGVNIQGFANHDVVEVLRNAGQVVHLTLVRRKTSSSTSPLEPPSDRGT

Binder | pKd
DRIQSCLSDA [SBF1, O95248] | below the threshold
PSVGSKKTVL [REELD1, A0A1B0GV85] | below the threshold

molecular target: DLG2_2, Q15700; experiment: holdup assay; set-up: key: below the threshold = too weak to quantify, mostly under pKd 3.1 to 4; conditions: plain residues with an end cap or a label only (N-terminal biotin on a linker: ado-ado)
Sequence (Q15700 189-283): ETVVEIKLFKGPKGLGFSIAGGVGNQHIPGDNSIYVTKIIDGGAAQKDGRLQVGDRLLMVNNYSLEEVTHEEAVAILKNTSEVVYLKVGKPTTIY

Binder | pKd
DRIQSCLSDA [SBF1, O95248] | below the threshold
PSVGSKKTVL [REELD1, A0A1B0GV85] | below the threshold

molecular target: Inadl_10, Q8NI35; experiment: holdup assay; set-up: key: below the threshold = too weak to quantify, mostly under pKd 3.1 to 4; conditions: plain residues with an end cap or a label only (N-terminal biotin on a linker: ado-ado)
Sequence (Q8NI35 1673-1763): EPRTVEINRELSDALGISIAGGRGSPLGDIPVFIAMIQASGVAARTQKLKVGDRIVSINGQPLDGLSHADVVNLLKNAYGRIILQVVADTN

Binder | pKd
DRIQSCLSDA [SBF1, O95248] | below the threshold
PSVGSKKTVL [REELD1, A0A1B0GV85] | below the threshold

molecular target: GRIP2_6, Q9C0E4; experiment: holdup assay; set-up: key: below the threshold = too weak to quantify, mostly under pKd 3.1 to 4; conditions: plain residues with an end cap or a label only (N-terminal biotin on a linker: ado-ado)
Sequence (Q9C0E4 648-740): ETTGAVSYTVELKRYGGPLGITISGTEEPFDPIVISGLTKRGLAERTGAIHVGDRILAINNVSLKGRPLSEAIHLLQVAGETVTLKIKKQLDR

Binder | pKd
DRIQSCLSDA [SBF1, O95248] | below the threshold
PSVGSKKTVL [REELD1, A0A1B0GV85] | below the threshold

molecular target: T6, CARD11, Q9BXL7; experiment: holdup assay; set-up: key: below the threshold = too weak to quantify, mostly under pKd 3.1 to 4; conditions: plain residues with an end cap or a label only (N-terminal biotin on a linker: ado-ado)
T6 sequence (Q9BXL7 662-765, limits assumed, looked up): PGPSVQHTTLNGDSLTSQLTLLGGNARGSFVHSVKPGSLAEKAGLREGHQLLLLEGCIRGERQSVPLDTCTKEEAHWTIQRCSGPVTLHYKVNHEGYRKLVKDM

Binder | pKd
DRIQSCLSDA [SBF1, O95248] | below the threshold
PSVGSKKTVL [REELD1, A0A1B0GV85] | below the threshold

molecular target: FRMPD3, Q5JV73; experiment: holdup assay; set-up: key: below the threshold = too weak to quantify, mostly under pKd 3.1 to 4; conditions: plain residues with an end cap or a label only (N-terminal biotin on a linker: ado-ado)
Sequence (Q5JV73 12-100): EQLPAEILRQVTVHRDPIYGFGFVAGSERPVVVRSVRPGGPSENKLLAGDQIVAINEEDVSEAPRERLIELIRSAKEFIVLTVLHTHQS

Binder | pKd
DRIQSCLSDA [SBF1, O95248] | below the threshold
PSVGSKKTVL [REELD1, A0A1B0GV85] | below the threshold

molecular target: GRASP, Q7Z6J2; experiment: holdup assay; set-up: key: below the threshold = too weak to quantify, mostly under pKd 3.1 to 4; conditions: plain residues with an end cap or a label only (N-terminal biotin on a linker: ado-ado)
Sequence (Q7Z6J2 96-193): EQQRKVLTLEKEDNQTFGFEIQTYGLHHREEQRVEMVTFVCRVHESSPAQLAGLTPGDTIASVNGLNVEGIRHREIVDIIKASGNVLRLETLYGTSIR

Binder | pKd
DRIQSCLSDA [SBF1, O95248] | below the threshold
PSVGSKKTVL [REELD1, A0A1B0GV85] | 4.43

molecular target: NHERF4_1, Q86UT5-2; experiment: holdup assay; set-up: key: below the threshold = too weak to quantify, mostly under pKd 3.1 to 4; conditions: plain residues with an end cap or a label only (N-terminal biotin on a linker: ado-ado)
Sequence (Q86UT5 other isoform, or with tags, fused parts or gaps): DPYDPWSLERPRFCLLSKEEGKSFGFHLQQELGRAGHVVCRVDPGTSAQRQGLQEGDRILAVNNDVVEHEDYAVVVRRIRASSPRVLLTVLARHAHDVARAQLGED

Binder | pKd
DRIQSCLSDA [SBF1, O95248] | below the threshold
PSVGSKKTVL [REELD1, A0A1B0GV85] | 3.95

molecular target: Inadl_8, Q8NI35; experiment: holdup assay; set-up: key: below the threshold = too weak to quantify, mostly under pKd 3.1 to 4; conditions: plain residues with an end cap or a label only (N-terminal biotin on a linker: ado-ado)
Sequence (Q8NI35 1425-1530): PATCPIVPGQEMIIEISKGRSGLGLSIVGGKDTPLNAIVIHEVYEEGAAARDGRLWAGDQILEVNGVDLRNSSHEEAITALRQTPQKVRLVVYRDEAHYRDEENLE

Binder | pKd
DRIQSCLSDA [SBF1, O95248] | below the threshold
PSVGSKKTVL [REELD1, A0A1B0GV85] | below the threshold

molecular target: T7, LIN7A, O14910; experiment: holdup assay; set-up: key: below the threshold = too weak to quantify, mostly under pKd 3.1 to 4; conditions: plain residues with an end cap or a label only (N-terminal biotin on a linker: ado-ado)
T7 sequence (O14910 103-200, limits assumed, looked up): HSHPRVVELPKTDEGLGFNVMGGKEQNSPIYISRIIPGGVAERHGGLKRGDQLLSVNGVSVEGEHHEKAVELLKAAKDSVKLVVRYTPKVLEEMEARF

Binder | pKd
DRIQSCLSDA [SBF1, O95248] | below the threshold
PSVGSKKTVL [REELD1, A0A1B0GV85] | below the threshold

molecular target: T8, PARD3B_1, Q8TEW8; experiment: holdup assay; set-up: key: below the threshold = too weak to quantify, mostly under pKd 3.1 to 4; conditions: plain residues with an end cap or a label only (N-terminal biotin on a linker: ado-ado)
T8 sequence (Q8TEW8 196-299, limits assumed, looked up): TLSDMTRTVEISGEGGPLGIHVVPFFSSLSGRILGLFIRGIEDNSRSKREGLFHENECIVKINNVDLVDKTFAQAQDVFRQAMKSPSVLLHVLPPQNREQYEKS

Binder | pKd
DRIQSCLSDA [SBF1, O95248] | below the threshold
PSVGSKKTVL [REELD1, A0A1B0GV85] | 4.62

molecular target: T9, LNX2_3, Q8N448; experiment: holdup assay; set-up: key: below the threshold = too weak to quantify, mostly under pKd 3.1 to 4; conditions: plain residues with an end cap or a label only (N-terminal biotin on a linker: ado-ado)
T9 sequence (Q8N448 463-564, limits assumed, looked up): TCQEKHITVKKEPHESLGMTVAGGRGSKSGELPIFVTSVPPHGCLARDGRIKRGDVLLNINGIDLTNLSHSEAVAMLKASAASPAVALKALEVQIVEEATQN

Binder | pKd
DRIQSCLSDA [SBF1, O95248] | below the threshold
PSVGSKKTVL [REELD1, A0A1B0GV85] | below the threshold
